Test results as given in patent publication US11779606B2, “Peptides and combination of peptides of non-canonical origin for use in immunotherapy against different types of cancers” (Immatics Biotechnologies GmbH, priority 2018, dated 2023).

Each substance was assayed against HLA-A*02:01 (Homo sapiens, UniProt P04439, D140Y/D185E/D98H/E176V/E277Q/G131W/G231S/I119V/I121R/I166T/I218V/L300P/L318F/N151K/N90K/P208A/P217A/Q86G/Q94H/R138H/R169H/T345S) (assay: MHC binding assay (UV-ligand exchange, β2m ELISA)). Settings: MHC class I binding score; peptide exchange yield, binding to HLA-A*02:01, UV-ligand exchange with β2m ELISA.
Source text: Candidate peptides for T cell based therapies according to the present invention were further tested for their MHC binding capacity (affinity).
The individual peptide-MHC complexes were produced by UV-ligand exchange, where a UV-sensitive peptide is cleaved upon UV-irradiation and exchanged with the peptide of interest as analyzed. Only peptide candidates that can effectively bind and stabilize the peptide-receptive MHC molecules prevent dissociation of the MHC complexes. To determine the yield of the exchange reaction, an ELISA was performed based on the detection of the light chain (β2m) of stabilized MHC complexes. The assay was performed as generally described in Rodenko et al. (Rodenko et al., 2006).
96 well MAXISorp plates (NUNC) were coated over night with 2 ug/ml streptavidin in PBS at room temperature, washed 4× and blocked for 1h at 37° C. in 2% BSA containing blocking buffer. Refolded HLA-A*02:01/MLA-001 monomers served as standards, covering the range of 15-500 ng/ml. Peptide-MHC monomers of the UV-exchange reaction were diluted 100 fold in blocking buffer. Samples were incubated for 1 h at 37° C., washed four times, incubated with 2 ug/ml HRP conjugated anti-β2m for 1h at 37° C., washed again and detected with TMB solution that is stopped with […]. Absorption was measured at 450 nm. Candidate peptides that show a high exchange yield (preferably higher than 50%, most preferred higher than 75%) are generally preferred for a generation and production of antibodies or fragments thereof, and/or T cell receptors or fragments thereof, as they show sufficient avidity to the MHC molecules and prevent dissociation of the MHC complexes.

| Peptide exchange | Substance |
| --- | --- |
| ++++ (≥75% = ++++) | 59 (LAASTTFLGV; listed as Homo sapiens) [compound 59] |
| ++ (≥20% = ++) | 20 (VLISLPGKV; listed as Homo sapiens) [compound 20] |
| ++++ (≥75% = ++++) | 40 (FTLPFLVNL; listed as Homo sapiens) [compound 40] |
| ++++ (≥75% = ++++) | 10 (SLLDKLSGI; listed as Homo sapiens) [compound 10] |
| ++ (≥20% = ++) | 67 (ALKELMGPA; listed as Homo sapiens) [compound 67] |
| +++ (≥50 = +++) | 28 (SQLEKPETA; listed as Homo sapiens) [compound 28] |
| ++++ (≥75% = ++++) | 44 (WLIPRQLAAA; listed as Homo sapiens) [compound 44] |
| ++++ (≥75% = ++++) | 66 (ILNELLNSI; listed as Homo sapiens) [compound 66] |
| ++++ (≥75% = ++++) | 42 (WITPVIPAL; listed as Homo sapiens) [compound 42] |
| ++++ (≥75% = ++++) | 98 (SLMEVTHDL; listed as Homo sapiens) [compound 98] |
| ++++ (≥75% = ++++) | 12 (HLDSMNVSI; listed as Homo sapiens) [compound 12] |
| ++++ (≥75% = ++++) | 54 (GLSPDQVFL; listed as Homo sapiens) [compound 54] |
| ++++ (≥75% = ++++) | 39 (YIYEDEVRL; listed as Homo sapiens) [compound 39] |
| ++++ (≥75% = ++++) | 35 (VLLNSNYPV; listed as Homo sapiens) [compound 35] |
| ++ (≥20% = ++) | 15 (NLVMPLLHI; listed as Homo sapiens) [compound 15] |
| ++++ (≥75% = ++++) | 14 (LLIEVSEEL; listed as Homo sapiens) [compound 14] |
| ++++ (≥75% = ++++) | 100 (SLGPPPVGV; listed as Homo sapiens) [compound 100] |
| ++ (≥20% = ++) | 61 (VLPWQPLLL; listed as Homo sapiens) [compound 61] |
| ++ (≥20% = ++) | 27 (IAAGVPNTDA; listed as Homo sapiens) [compound 27] |
| ++++ (≥75% = ++++) | 5 (LVWEVVESV; listed as Homo sapiens) [compound 5] |
| ++++ (≥75% = ++++) | 17 (VLWDLRPSSLI; listed as Homo sapiens) [compound 17] |
| +++ (≥50 = +++) | 41 (LMASEGIWESSL; listed as Homo sapiens) [compound 41] |
| ++++ (≥75% = ++++) | 34 (LLNVEPAGA; listed as Homo sapiens) [compound 34] |
| ++ (≥20% = ++) | 30 (LLRLTLLPL; listed as Homo sapiens) [compound 30] |
| +++ (≥50 = +++) | 56 (IITNLIVNI; listed as Homo sapiens) [compound 56] |
| ++++ (≥75% = ++++) | 71 (WLMPVMPAL; listed as Homo sapiens) [compound 71] |

| Peptide exchange | Substance |
| --- | --- |
| ++++ (≥75% = ++++) | 16 (ALLDAEQSPVAL; listed as Homo sapiens) [compound 16] |
| +++ (≥50 = +++) | 21 (FVFISPSFL; listed as Homo sapiens) [compound 21] |
| ++++ (≥75% = ++++) | 22 (SLYDVPVGA; listed as Homo sapiens) [compound 22] |
| ++++ (≥75% = ++++) | 70 (LLLQIEPAA; listed as Homo sapiens) [compound 70] |
| ++++ (≥75% = ++++) | 60 (LLLATLENL; listed as Homo sapiens) [compound 60] |
| + (≥10% = +) | 64 (LLLALRLSL; listed as Homo sapiens) [compound 64] |
| ++++ (≥75% = ++++) | 53 (TISISLSSV; listed as Homo sapiens) [compound 53] |
| ++ (≥20% = ++) | 25 (ISVLNLSAI; listed as Homo sapiens) [compound 25] |
| ++++ (≥75% = ++++) | 9 (FLQEGDLISV; listed as Homo sapiens) [compound 9] |
| +++ (≥50 = +++) | 11 (ALLPHAPEAV; listed as Homo sapiens) [compound 11] |
| ++++ (≥75% = ++++) | 62 (SLLGKPGLTI; listed as Homo sapiens) [compound 62] |
| ++++ (≥75% = ++++) | 24 (TLTSLNILL; listed as Homo sapiens) [compound 24] |
| +++ (≥50 = +++) | 32 (VLSVSAVLGA; listed as Homo sapiens) [compound 32] |
| ++++ (≥75% = ++++) | 99 (ALMDGSESRFFV; listed as Homo sapiens) [compound 99] |
| ++ (≥20% = ++) | 23 (GLEVLDALL; listed as Homo sapiens) [compound 23] |
| ++++ (≥75% = ++++) | 57 (YVLMTSLLL; listed as Homo sapiens) [compound 57] |
| ++ (≥20% = ++) | 43 (AIWSTILIA; listed as Homo sapiens) [compound 43] |
| +++ (≥50 = +++) | 55 (MVQQEKLFV; listed as Homo sapiens) [compound 55] |
| ++ (≥20% = ++) | 58 (MIISHRALEL; listed as Homo sapiens) [compound 58] |
| ++ (≥20% = ++) | 52 (LAFVSHVLI; listed as Homo sapiens) [compound 52] |
| ++++ (≥75% = ++++) | 45 (ALYHQSPLL; listed as Homo sapiens) [compound 45] |
| ++++ (≥75% = ++++) | 69 (LLCPVVLQL; listed as Homo sapiens) [compound 69] |
| ++++ (≥75% = ++++) | 97 (GLIDDKGTIKL; listed as Homo sapiens) [compound 97] |
| ++++ (≥75% = ++++) | 8 (ILQSLVPAA; listed as Homo sapiens) [compound 8] |
| ++ (≥20% = ++) | 63 (LSFKRSLSI; listed as Homo sapiens) [compound 63] |
| ++ (≥20% = ++) | 73 (STTIINLIL; listed as Homo sapiens) [compound 73] |

What follows are substances tested on CD8+ T cells (assay: In vitro T-cell priming assay (immunogenicity) with artificial APCs loaded with peptide/MHC complexes and anti-CD28). Settings: CD8+ T cells of healthy HLA-A*02 donors, multimer staining, Table 13a.
Format: cell-based, human
Source text: In order to obtain information regarding the immunogenicity of the TUMAPs of the present invention, the inventors performed investigations using an in vitro T-cell priming assay based on repeated stimulations of CD8+ T cells with artificial antigen presenting cells (aAPCs) loaded with peptide/MHC complexes and anti-CD28 antibody.
In order to perform in vitro stimulations by artificial antigen presenting cells loaded with peptide-MHC complex (pMHC) and anti-CD28 antibody, the inventors first isolated CD8+ T cells from fresh HLA-A*02 leukapheresis products via positive selection using CD8 microbeads (Miltenyi Biotec, Bergisch-Gladbach, Germany) of healthy donors obtained from the University clinics Mannheim, Germany, after informed consent.
PBMCs and isolated CD8+ lymphocytes were incubated in T-cell medium (TCM) until use consisting of RPMI-Glutamax (Invitrogen, Karlsruhe, Germany) supplemented with 10% heat inactivated human AB serum (PAN-Biotech, Aidenbach, Germany), 100 U/ml Penicillin/100 μg/ml Streptomycin (Cambrex, Cologne, Germany), 1 mM sodium pyruvate (CC Pro, Oberdorla, Germany), 20 μg/ml Gentamycin (Cambrex). 2.5 ng/ml IL-7 (PromoCell, Heidelberg, Germany) and 10 U/ml IL-2 (Novartis Pharma, Nümberg, Germany) were also added to the TCM at this step.
Generation of pMHC/anti-CD28 coated beads, T-cell stimulations and readout was performed in a highly defined in vitro system using four different pMHC molecules per stimulation condition and 8 different pMHC molecules per readout condition.
The purified co-stimulatory mouse IgG2a anti human CD28 Ab 9.3 (Jung et al., 1987) was chemically biotinylated using Sulfo-N-hydroxysuccinimidobiotin as recommended by the manufacturer (Perbio, Bonn, Germany). Beads used were 5.6 μm diameter streptavidin coated polystyrene particles (Bangs Laboratories, Illinois, USA).
800.000 beads/200 μl were coated in 96-well plates in the presence of 4×12.5 ng different biotin-pMHC, washed and 600 ng biotin anti-CD28 were added subsequently in a volume of 200 μl. Stimulations were initiated in 96-well plates by co-incubating […] CD8+ T cells with 2×10^5 washed coated beads in 200 μl TCM supplemented with 5 ng/ml IL-12 (PromoCell) for 3 days at 37° C. Half of the medium was then exchanged by fresh TCM supplemented with 80 U/ml IL-2 and incubating was continued for 4 days at 37° C. This stimulation cycle was performed for a total of three times. For the pMHC multimer readout using 8 different pMHC molecules per condition, a two-dimensional combinatorial coding approach was used as previously described (Andersen et al., 2012) with minor modifications encompassing coupling to 5 different fluorochromes. Finally, multimeric analyses were performed by staining the cells with Live/dead near IR dye (Invitrogen, Karlsruhe, Germany), CD8-FITC antibody clone SK1 (BD, Heidelberg, Germany) and fluorescent pMHC multimers. For analysis, a BD LSRII SORP cytometer equipped with appropriate lasers and filters was used. Peptide specific cells were calculated as percentage of total CD8+ cells. Evaluation of multimeric analysis was done using the FlowJo software (Tree Star, Oreg., USA). In vitro priming of specific multimer+CD8+ lymphocytes was detected by comparing to negative control stimulations.

| Substance | Wells positive [%] |
| --- | --- |
| 102 (GLDPTQFRV; listed as Homo sapiens) [compound 102] | ++++ (>=70% = ++++) |
| 103 (SLVSYLDKV; listed as Homo sapiens) [compound 103] | + (<20% = +) |

Same assay, conditions: CD8+ T cells of healthy HLA-A*02 donors, multimer staining, Table 13b

| Substance | Wells positive [%] |
| --- | --- |
| 40 (FTLPFLVNL; listed as Homo sapiens) [compound 40] | +++ (50-69% = +++) |
